Assay [1] deals with biotinylated (prokaryotic) IL-6 (Homo sapiens, UniProt P05231). Description: Surface plasmon resonance (Biacore), biotinylated IL-6 captured on streptavidin sensor chip. The note with it: purified Fab. Type of assay: binding. On the procedure: (§1) The binding kinetics of IL-6-specific Fabs that were able to cross-compete with the B-E8 antibody was assessed using surface plasmon resonance (Biacore). Specifically, biotinylated (prokaryotic) IL-6 was captured on a streptavidin biacore sensor chip (CM5-SA) and different concentrations of purified Fabs were injected during 3 minutes following by a 5 minute wash with buffer. From the washing phase the off-rate (kd) was determined, while from the injection phase the on-rate (ka) was calculated using the concentration and off-rate as parameters. […] The binding kinetics of antagonistic purified Fabs (Table 3) and periplasmic fractions of Fab-expressing bacteria (Table 4) were also evaluated by surface plasmon resonance (Biacore) using both bacterially and eukaryotically produced human IL-6 directly coated on a CM5 chip. The Fabs tested had off-rates between 6×10^−4 and 2×10^−5 s^−1.
Sequence of biotinylated (prokaryotic) IL-6 (P05231 30-212): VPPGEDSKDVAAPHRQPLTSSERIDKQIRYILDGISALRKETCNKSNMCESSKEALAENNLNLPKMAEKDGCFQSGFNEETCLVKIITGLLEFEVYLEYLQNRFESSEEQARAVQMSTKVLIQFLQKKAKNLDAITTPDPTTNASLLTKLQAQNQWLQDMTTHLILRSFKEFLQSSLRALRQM
(In general: SPR reads the build-up and loss of mass on a sensor chip optically.)

Assay [2] deals with T1, eukaryotically produced human IL-6 (Homo sapiens, UniProt P05231).
T1 construct: purchased Humanzyme HZ-1044; host or cells: Human Embryonic kidney cells
T1 sequence (P05231 30-212): as above
Description: Surface plasmon resonance (Biacore), eukaryotically produced human IL-6 coated on CM5 chip. The note with it: for KA / ka / kd: euk, periplasmic fractions. Type of assay: binding. On the procedure: as §1
(§2) VL chain shuffling was used to improve the affinity of the Fabs 17F10, 18C7, 18C9, 18C11, 20A4, 29B11, 16D2 and 28A6. In this method, the heavy chain of these clones (as a VHCH1 fragment) was reintroduced into the primary phagemid-light chain library (see Example 1). Affinity selections were performed to select for chain shuffled Fabs with an improved affinity for IL-6. The binding kinetics of chain shuffled Fabs were evaluated by surface plasmon resonance (Biacore) using both bacterially and eukaryotically produced human IL-6, and cynomolgus monkey IL-6 (Tables 5-7). The VH and VL amino acid sequences of exemplary IL-6-specific Fabs selected by the VL chain shuffling method are set forth in Table 14 below.
(§3) VH chain shuffling was also used to improve the affinity of the Fab 24D10. In this method, the light chain of 24D10 was reintroduced into the primary phagemid-heavy chain library (see Example 1) and selected using an off-rate assay. In this type of selection, the phage were allowed to bind to antigen on a substrate for 1.5 to 2 hours. At round 2, after 15 washes with PBS-Tween, an additional wash was performed with the presence of excess soluble IL-6. […] This procedure avoids re-binding of such phage to the coated target. […] The binding kinetics of chain shuffled Fabs and the benchmark antibodies, BE8 and GL18, were evaluated by surface plasmon resonance (Biacore) using both bacterially and eukaryotically produced human IL-6 (Tables 8 and 9). The VH and VL amino acid sequences of exemplary IL-6-specific Fabs selected by the VH chain shuffling method are set forth in Table 14 below. […]

Assay [3] addresses T2, bacterially produced human IL-6 (Homo sapiens, UniProt P05231).
T2 construct: His
The assay is described as follows: Surface plasmon resonance (Biacore), bacterially produced human IL-6 coated on CM5 chip. The note with it: for KA / ka / kd: bact, periplasmic fractions. The class given is binding. On the procedure:
as §1, §2, §3

Assay [4] addresses T3, cynomolgus monkey IL-6 (Macaca fascicularis, UniProt P79341).
T3 construct: His
The assay is described as follows: Surface plasmon resonance (Biacore), cynomolgus monkey IL-6. The class given is binding. The note with it: for KA / ka / kd: cy/cyno, periplasmic fractions. On the procedure:
as §2

For assay [5], the target named is T4, human IL-6 (Homo sapiens, UniProt P05231).
T4 construct: host or cells: IL-6 added from outside to murine 7TD1 hybridoma cells
T4 sequence (P05231 30-212): as above
Description: IL-6 neutralizing bioassay, 7TD1 cell proliferation. The class given is cell-based. The settings on record: relative to 68F2. On the procedure:
The in vitro efficacy of clones 133E5, 133A9, 133H2, 111B1, 104C1, 129D3, 68F2, 61H7, were also determined using a cell-based neutralizing bioassay using the 7TD1 cell line, essentially as described in Van Snick et al. PNAS; 83, :9679 (1986), which is hereby incorporated by reference in its entirety. 7TD1 cells are a murine hybridoma cell line formed by fusion of the mouse myeloma cell line Sp2/0-Ag14 with spleen cells from a C57BL/6 mouse immunized with Escherichia coli lipopolysaccharides three days before fusion. The 7TD1 cell line is dependent on IL-6 for its growth and IL-6 withdrawal leads to cell death by apoptosis.
Briefly, 7TD1 cells (7.10E3) were incubated for 2-4 h in RPMI1640 medium+10% FCS before addition of IL-6 (75 pg/ml final concentration) in microtiter plates (200 ul final volume). The cells were incubated 3 days at 37C, before washing with PBS and addition of 60 ul of substrate solution (p-nitrophenyl-N-acetyl-β-D-glucosaminide (Sigma N-9376); 7.5 mM substrate in 0.05 M NaCitrate pH 5; 0.25 vol % triton X-100) for 4 h. The enzymatic reaction was stopped with 90 ul of stop solution (100 mM glycine+10 mM EDTA pH 10.4) and OD at 405 nm measured.
The VH and VL of the germlined versions of 68F2 were recloned in pUPE Heavy Chain and Light Chain expression vectors, respectively, for transient expression of full-length IgG1 antibodies. After transient expression in HEK293E cells, IgG1 antibodies were purified with protein A and quantified by measurement of OD280. Table 19 below summarizes the production levels of the germlined derivatives together with the levels of the 68F2 parental antibody. Potencies (in pM) were also measured in a 7TD1 based proliferation assay for each antibody.

Changes are numbered by the printed parent chain. Values joined by “and” are separate entries in the source; they are usually repeats but may differ in a detail not shown here. Identical values can stand only once.

T2 sequence (P05231 30-212): as above
T3 sequence (P79341 28-212): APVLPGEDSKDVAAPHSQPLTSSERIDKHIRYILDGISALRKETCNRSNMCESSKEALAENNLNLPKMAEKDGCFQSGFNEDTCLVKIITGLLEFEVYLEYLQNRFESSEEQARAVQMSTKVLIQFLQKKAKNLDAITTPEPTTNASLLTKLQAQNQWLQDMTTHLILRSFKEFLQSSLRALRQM

B1: 29B11: antagonistic IL-6-specific Fab clone from immunized llama (antibody, listed as Lama glama, V domains shown)
VH: EVQLVESGGGLVQPGGSLRLSCAASGFTFSSYAMSWVRQAPGKGLEWVSRISSGGISTYYADSVKGRFTISRDNAKNTLYLQMNSLKPEDTAVYYCVRYAWGVQWAFDFWGQGTQVTVSS
VL: QSVLTQPPSVSGSPGQTVTISCAGTSEDVGYGNYVSWYQQLPGMAPKLLIYDVNKRASGIADRFSGSKSGNTASLTISGLQSEDEADYYCASYRRTIDNIFGGGTHLTVLG
Turning to B1, in assay [1], the KA amounted to 4.36e+07 M⁻¹, the Rmax was found to be 23.3 RU, the ka stood at 130000 M⁻¹ s⁻¹ and the kd was determined as 0.00298 s⁻¹. In assay [2] (29B11 chain shuffled), the KA stood at 1.83e+09 M⁻¹, the ka was determined as 187000 M⁻¹ s⁻¹ and the kd came to 0.000102 s⁻¹. Also, in assay [3] (29B11 chain shuffled), the KA worked out at 1.91e+09 M⁻¹, the ka is 251000 M⁻¹ s⁻¹ and the kd was 0.000131 s⁻¹. For the same molecule, in assay [4] (29B11 chain shuffled), the KA came to 1.51e+08 M⁻¹, the ka was 113000 M⁻¹ s⁻¹ and the kd is 0.000746 s⁻¹.

B2: 129D3 (17.06) (antibody, V domains shown)
VH: EVQLQESGPGLVKPSQTLSLTCTVSGGSITSRYYAWSWIRQPPGKGLEWIGVIDYDGDTYYSPSLKSRVSISWDTSKNQFSLKLSSVTPADTAVYYCARDPDVVTGFHYDYWGQGTMVTVSS
VL: QSALTQPPSVSGTPGQSVTISCAGANNDIGTYAYVSWYQQLPGTAPKLMIYKVTTRASGIPDRFSGSKSGNTASLTISGLQAEDEADYYCASYRNFNNAVFGTGTKLTVL
For the molecule B2, the “Rel. Potency” value in assay [5] (Exp 22.06 (7TD1)) came out at 1.02.

B3: 128G3 (17.06) (antibody, V domains shown)
VH: B2 VH with S31T, V69T, S70T, W73V, A90E
VL: B2 VL with T13A, S17T, M49L, I60V, T76A, T103G, K106H
Consider B3, for which the “Rel. Potency” value in assay [5] (Exp 22.06 (7TD1)) turned out to be 0.60; in assay [5] (Exp 29.06 (7TD1)), 0.52.

B4: 68F2 (#12.9) (antibody, V domains shown)
VH: B2 VH with S31T, I50M, V69T, K83Q, A90E, M117Q
VL: QSALTQPPLVSGTPGQTVTISCAGANNDIGTYAYVSWYQQLPGTAPKLLIYKVTTRASGIPSRFSGSKSGNTASLTISGLQSEDEADYYCASYRNFNNAVFGRGTHLTVLG
B4: the entries for the “Rel. Potency” value in assay [5] (Exp 7.07 (7TD1)) and in assay [5] (Exp 29.06 (7TD1)) were 0.93 and 1.08, respectively.

B5: 68F2 (Large batch) (antibody, V domains shown)
VH: B2 VH with S31T, I50M, V69T, K83Q, A90E, M117Q
VL: B4 VL
Turning to B5, the “Rel. Potency” value in assay [5] (Exp 29.06 (7TD1)) is on record as 0.43.

B6: 129F2 (17.06) (antibody, V domains shown)
VH: B2 VH with S70T, P89A, A90E
VL: B2 VL with S17T, A82S, T103G
Regarding B6, the “Rel. Potency” value in assay [5] (Exp 22.06 (7TD1)) worked out at 1.14.

B7: 127E2 (24.06) (antibody, V domains shown)
VH: B2 VH with S31T, S70T, W73V, K83Q, P89A, A90E, M117Q
VL: B2 VL with T13S, S17T, L41P, M49L, I60V, T103G, K106H
Turning to B7, the “Rel. Potency” value in assay [5] (Exp 22.06 (7TD1)) came to 0.58.

B8: 127E2 (17.06) (antibody, V domains shown)
VH: B2 VH with S31T, S70T, W73V, K83Q, P89A, A90E, M117Q
VL: B2 VL with T13S, S17T, L41P, M49L, I60V, T103G, K106H
As for B8, in assay [5] (Exp 29.06 (7TD1)), the “Rel. Potency” value came to 0.37.

B9: 55E10g1: 28A6 chain-shuffled Fab, periplasmic fraction (antibody, V domains shown)
VH: QVQLVESGGGLVQPGGSLRLSCAASGFTFSNYYMTWVRQAPGKGLEWVSSIYSFSGDTAYADSVKGRFTISRDNAKNTLYLQMNSLKSEDTAVYYCTRNLGGVVVTTNGYDYWGQGTQVTVSS
VL: DIQMTQSPSSLPTSLGDSVTITCQASQSISDELSWYQQKPGQTPKLLIYGASKLQTGVPSRFSGSGSGTSFTLTISGLEAEDLATYYCLQGYSWPFMFGQGTKVELK
Turning to B9, in assay [2] (28A6 chain-shuffled), the KA amounted to 2.62e+09 M⁻¹, the ka amounted to 146000 M⁻¹ s⁻¹ and the kd stood at 5.59e-05 s⁻¹. In assay [3] (28A6 chain-shuffled), this molecule had a KA of 3.18e+09 M⁻¹, a ka of 193000 M⁻¹ s⁻¹ and a kd of 6.09e-05 s⁻¹. In assay [4] (28A6 chain-shuffled), this molecule returned a KA of 2.1e+09 M⁻¹, a ka of 145000 M⁻¹ s⁻¹ and a kd of 6.88e-05 s⁻¹.

B10: 48H1g2, R4: 28A6 chain-shuffled Fab, periplasmic fraction (antibody, V domains shown)
VH: B9 VH
VL: B9 VL with I2V, Q3V
In assay [2] (28A6 chain-shuffled), B10 gave a KA of 1.56e+09 M⁻¹, a ka of 106000 M⁻¹ s⁻¹ and a kd of 6.8e-05 s⁻¹. Also, in assay [3] (28A6 chain-shuffled), the KA was determined as 2.93e+09 M⁻¹, the ka was determined as 206000 M⁻¹ s⁻¹ and the kd was determined as 7.04e-05 s⁻¹. In addition, in assay [4] (28A6 chain-shuffled), the KA was found to be 1.18e+09 M⁻¹, the ka was 112000 M⁻¹ s⁻¹ and the kd came to 9.46e-05 s⁻¹.

B11: 18C7: antagonistic IL-6-specific Fab clone from immunized llama (antibody, listed as Lama glama, V domains shown)
VH: EVQLVESGPGLVKPSQTLSLTCTVSGGSITASFDAWSWIRQPPGKGLEWMGVIAYDGSTYYSPSLKSRTSISRDTSKNQFSLQLSSVTPEDTAVYYCARKSSWLIGYGMDYWGKGTLVTVSS
VL: QAGLTQPSALSVTLGQTAKITCQGGSLGSSYAHWYQQKPGQAPVLVIYDDDSRPSGIPERFSGSSSGGRATLTISGAQAEDEGDYYCQSADSSGNAAVFGGGTHLTVLG
Regarding B11, in assay [1], the KA came to 5.7e+07 M⁻¹, the Rmax was found to be 43.9 RU, the ka was 105000 M⁻¹ s⁻¹ and the kd was 0.00185 s⁻¹. For the same molecule, in assay [2] (purified chain-shuffled Fabs), the “Koff eukIL-6” value is 0.001 s⁻¹ and 0.00082 s⁻¹. For the same molecule, the “Koff HIS-huIL-6” value in assay [3] (purified chain-shuffled Fabs) was found to be 0.0011 s⁻¹. For the same molecule, the “Koff HIS-cyIL-6” value in assay [4] (purified chain-shuffled Fabs) was 0.00063 s⁻¹ and 0.00069 s⁻¹.

The values above are taken from patent US11827701B2, “IL-6 binding molecules” (argenx BV, priority 2012, dated 2023).
